According to patent US8399201B2, “Polypeptide complex of TRPM8 and calmodulin and its uses thereof” (Janssen Pharmaceutica N.V., priority 2005, dated 2013):

B1: TRPM8-4/pAGA3: Rat TRPM8 fragment, residues I609-K1104 (end), 495 aa (protein)
chain: NAAGESEELANEYETRAVELFTECYSSDEDLAEQLLVYSCEAWGGSNCLELAVEATDQHFIAQPGVQNFLSKQWYGEISRDTKNWKIILCLFIIPLVGCGLVSFRKKPIDKHKKLLWYYVAFFTSPFVVFSWNVVFYIAFLLLFAYVLLMDFHSVPHTPELILYALVFVLFCDEVRQWYMNGVNYFTDLWNVMDTLGLFYFIAGIVFRLHSSNKSSLYSGRVIFCLDYIIFTLRLIHIFTVSRNLGPKIIMLQRMLIDVFFFLFLFAVWMVAFGVARQGILRQNEQRWRWIFRSVIYEPYLAMFGQVPSDVDSTTYDFSHCTFSGNESKPLCVELDEYNLPRFPEWITIPLVCIYMLSTNILLVNLLVAMFGYTVGIVQENNDQVWKFQRYFLVQEYCNRLNIPFPFVVFAYFYMVVKKCFKCCCKEKNTESSACCFRNEDNETLAWEGVMKENYLVKINTKANDNAEEMRHRFRQLDTKLNDLKGLLKEIANKIK
B2: TRPM8-6/pAGA3: Rat TRPM8 fragment, residues M63-S352, 289 aa (protein)
chain: AMESICKCGYAQSQHIEGTQINQNEKWNYKKHTKEFPTDAFGDIQFETLGKKGKYLRLSCDTDSETLYELLTQHWHLKTPNLVISVTGGAKNFALKPRMRKIFSRLIYIAQSKGAWILTGGTHYGLMKYIGEVVRDNTISRNSEENIVAIGIAAWGMVSNRDTLIRNCDDEGHFSAQYIMDDFMRDPLYILDNNHTHLLLVDNGCHGHPTVEAKLRNQLEKYISERTSQDSNYGGKIPIVCFAQGGGRETLKAINTSVKSKIPCVVVEGSGQIADVIASLVEVEDVLTSS
B3: TRPM8-7/pAGA3: Rat TRPM8 fragment, residues V145-S352, 207 aa (protein)
chain: VISVTGGAKNFALKPRMRKIFSRLIYIAQSKGAWILTGGTHYGLMKYIGEVVRDNTISRNSEENIVAIGIAAWGMVSNRDTLIRNCDDEGHFSAQYIMDDFMRDPLYILDNNHTHLLLVDNGCHGHPTVEAKLRNQLEKYISERTSQDSNYGGKIPIVCFAQGGGRETLKAINTSVKSKIPCVVVEGSGQIADVIASLVEVEDVLTSS
B4: TRPM8-2/pAGA3: Rat TRPM8 fragment, residues M353-T690, 337 aa (protein)
chain: MVKEKLVRFLPRTVSRLPEEEIESWIKWLKEILESPHLLTVIKMEEAGDEVVSSAISYALYKAFSTNEQDKDNWNGQLKLLLEWNQLDLASDEIFTNDRRWESADLQEVMFTALIKDRPKFVRLFLENGLNLQKFLTNEVLTELFSTHFSTLVYRNLQIAKNSYNDALLTFVWKLVANFRRSFWKEDRSSREDLDVELHDASLTTRHPLQALFIWAILQNKKELSKVIWEQTKGCTLAALGASKLLKTLAKVKNDINAAGESEELANEYETRAVELFTECYSSDEDLAEQLLVYSCEAWGGSNCLELAVEATDQHFIAQPGVQNFLSKQWYGEISRDT
B5: TRPM8-1/pAGA3: Rat TRPM8 fragment, residues M1-K432, 432 aa, in vitro translated from pAGA3 (protein)
chain: MSFEGARLSMRSRRNGTLGSTRTLYSSVSRSTDVSYSESDLVNFIQANFKKRECVFFTRDSKAMESICKCGYAQSQHIEGTQINQNEKWNYKKHTKEFPTDAFGDIQFETLGKKGKYLRLSCDTDSETLYELLTQHWHLKTPNLVISVTGGAKNFALKPRMRKIFSRLIYIAQSKGAWILTGGTHYGLMKYIGEVVRDNTISRNSEENIVAIGIAAWGMVSNRDTLIRNCDDEGHFSAQYIMDDFMRDPLYILDNNHTHLLLVDNGCHGHPTVEAKLRNQLEKYISERTSQDSNYGGKIPIVCFAQGGGRETLKAINTSVKSKIPCVVVEGSGQIADVIASLVEVEDVLTSSMVKEKLVRFLPRTVSRLPEEEIESWIKWLKEILESPHLLTVIKMEEAGDEVVSSAISYALYKAFSTNEQDKDNWNGQLKL
B6: TRPM8-9/pAGA3: Rat TRPM8 fragment, residues A172-S352, 180 aa (protein)
chain: AQSKGAWILTGGTHYGLMKYIGEVVRDNTISRNSEENIVAIGIAAWGMVSNRDTLIRNCDDEGHFSAQYIMDDFMRDPLYILDNNHTHLLLVDNGCHGHPTVEAKLRNQLEKYISERTSQDSNYGGKIPIVCFAQGGGRETLKAINTSVKSKIPCVVVEGSGQIADVIASLVEVEDVLTSS
B7: TRPM8-10/pAGA3: Rat TRPM8 fragment, residues D198-S352, 154 aa (protein)
chain: DNTISRNSEENIVAIGIAAWGMVSNRDTLIRNCDDEGHFSAQYIMDDFMRDPLYILDNNHTHLLLVDNGCHGHPTVEAKLRNQLEKYISERTSQDSNYGGKIPIVCFAQGGGRETLKAINTSVKSKIPCVVVEGSGQIADVIASLVEVEDVLTSS
B8: TRPM8-8/pAGA3: Rat TRPM8 fragment, residues M219-S352, 133 aa (protein)
chain: MVSNRDTLIRNCDDEGHFSAQYIMDDFMRDPLYILDNNHTHLLLVDNGCHGHPTVEAKLRNQLEKYISERTSQDSNYGGKIPIVCFAQGGGRETLKAINTSVKSKIPCVVVEGSGQIADVIASLVEVEDVLTSS

target: T1, calmodulin (Rattus norvegicus, UniProt P0DP29); experiment: Pull-down of 35S-methionine-labelled TRPM8 fragments on GST-CaM agarose-GSH beads, SDS/PAGE and autoradiography; assay type: binding; set-up: key to Binding (binding activity to calmodulin): (+) binding was detected; (−) no binding was detected; settings: TRPM8 fragments, FIG. 1 and FIG. 2
T1 construct: made in house; host or cells: Escherichia coli BL21 (pGEX-4T-1 based plasmid)
Experimental: ^35S-methionine labelled TRPM8 fragments were synthesized using TnT® T7 Quick Coupled Transcription/Translation System (Promega) following the vendor recommended protocol. Briefly, 10 μl of 0.1 μg/μl pAGA3 based TRPM8 construct (listed in Table 1) was added to 90 μl of TNT Quick Master Mix with 2 μl of [^35S]-methionine (1000 Ci/mmmol at 10 mCi/ml). The reaction mixture was incubated at 30° C. for 90 min. Aliquots of the incubation mixtures were used directly either for analysis by SDS/PAGE to confirm synthesis of proteins of the desired size or for the ability to bind to GST or GST-CaM.
The GST-CaM fusion plasmid was based on pGEX-4T-1 (Amersham Pharmacia). The CaM was fused to the C-terminus of GST. After transformation into Escherichia coli BL21, a single colony was picked and grown in brow medium to OD of 1.0 at 600 nm. The synthesis of the fusion protein was induced with 0.2 mM isopropyl β-D-thiogalactoside (IPTG). After growing 2-3 hours in the presence of IPTG at 27° C., the cells were collected by centrifugation, resuspended in NETN lysis buffer (0.5% Nonidet P-40/1 mM EDTA/20 mM Tris-HCl, pH8.0/100 mM NaCl; 1 ml of buffer per 20 ml of culture), and lysed by sonication. The cell lysate was separated from the cell debris by centrifugation at 10,000 g for 10 min at 4° C. GST-CaM in the cell lysate was adsorbed for 30 min at room temperature to agarose-glutathione (GSH) beads (Amersham Pharmacia) (1 vol. of lysates/1 vol of 50% (vol/vol) slurry of Agarose-GSH beads in NETN). The beads were washed with binding buffer (20 mM Tris-HCl, pH7.5/100 mM NaCl/2 mM CaCl2/0.5% Tween20).
Agarose-GSH beads (50% (vol./vol.)) bound with about 1 μg of GST or GST-CaM were incubated with 10 μl of ^35S-labelled TRPM8 fragment for 30 min at room temperature in a final volume of 200 μl of binding buffer. At the end of the incubation, the beads were washed three times with 1.0 ml of binding buffer and resuspended in 20 μl of 2× laemmli's sample loading buffer. Protein(s) bound to the beads, including the GST-CaM fusion protein, and possibly the ^35S-labelled TRPM8 fragment that interact with the GST-CaM fusion protein, were separated by SDS/PAGE followed by autoradiography.

Molecule | binding to CaM (result in words)
B1 | not
B2 | found to bind CaM
B3 | found to bind CaM
B4 | not
B5 | found to bind to CaM

same assay, conditions: rat TRPM8 constructs; binding buffer with 2 mM CaCl2, 30 min room temperature

Molecule | Binding (binding activity to calmodulin)
B1 | −
B2 | +
B6 | −
B3 | +
B4 | −
B5 | +
B7 | −
B8 | −
